Experimental data: FireProtDB (doi:10.1021/cb5003762)
Values joined by “and” are separate entries in the source; they are usually repeats but may differ in a detail not shown here. Equal values may be shown once.

B1: Histone deacetylase 8, Q9BY41 (parent)
chain: MEEPEEPADSGQSLVPVYIYSPEYVSMCDSLAKIPKRASMVHSLIEAYALHKQMRIVKPKVASMEEMATFHTDAYLQHLQKVSQEGDDDHPDSIEYGLGYDCPATEGIFDYAAAIGGATITAAQCLIDGMCKVAINWSGGWHHAKKDEASGFCYLNDAVLGILRLRRKFERILYVDLDLHHGDGVEDAFSFTSKVMTVSLHKFSPGFFPGTGDVSDVGLGKGRYYSVNVPIQDGIQDEKYYQICESVLKEVYQAFNPKAVVLQLGADTIAGDPMCSFNMTPVGIGKCLKYILQWQLATLILGGGGYNLANTARCWTYLTGVILGKTLSSEIPDHEFFTAYGPDYVLEITPSCRPDRNEPHRIQQILNYIKGNLKHVV

Variants of: B1
Settings: Homo sapiens; pH 7.5; Thermal; fluorescence; Hepes 25 mM; KCl 150 mM; structure 2V5W; whole UniProt chain shown

Variant	Tm
C153F	50.6 °C
A188T	46.5 °C and 50.6 °C
